In the test the target is T1, B-cell activating factor (BAFF) receptor (human, UniProt Q96RJ3 7-71, limits assumed).
T1 construct: also called TNFRSF13C; BLyS receptor 3
T1 sequence: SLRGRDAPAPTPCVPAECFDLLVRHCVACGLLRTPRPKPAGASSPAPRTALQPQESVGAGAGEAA
Description: method not stated; column heads (Kdis, Full X^2, Full R^2) look like bio-layer interferometry output.

B1: H90-5 anti-BAFF receptor monoclonal antibody (antibody, V domains shown)
VH: EVQLQESGPGLVKPSQTLSLTCTVSGDSITSGYWNWIRQHPGKGLEYIGYISYSGSTYYNPSLKSRVTISRDTSKNQYSLKLSSVTAADTAVYYCASPNYPFYAMDYWGQGTLVTVSS
VL: DIVLTQSPATLSLSPGERATLSCRASESVDNYGISFMNWFQQKPGQAPRLLIYAASNRATGIPARFSGSGSGTDFTLTISSLEPEDFAVYYCQQSKEVPWTFGGGTKVEIKR
notes: Humanized form of C90; also called H90-5 mAb
For the molecule B1, binding was put at a Kd of 3.4 nM, the koff is 0.0034 s⁻¹ and the kon amounted to 990000 M⁻¹ s⁻¹.

B2: H90-11 anti-BAFF receptor monoclonal antibody (antibody, V domains shown)
VH: B1 VH
VL: DIQMTQSPDSLAVSLGERATINCKSSQSVLYSSNNKNYLAWYQQKPGQPPKLLIYWASIRESGVPDRFSGSGSGTDFTLTISSLQPEDFATYYCQQSYSTPWTFGQGTKLEIKR
notes: same heavy chain variable region as H90-5; also called H90-11 mAb
As to B2, binding was characterised by a dissociation constant (Kd) of 0.95 nM, the koff amounted to 0.00082 s⁻¹ and the kon turned out to be 860000 M⁻¹ s⁻¹.

(Values after patent US20210261676A1 (YINNUOLAI BIOTECH, published 2021).)
